As usually defined, the EC50 is the concentration needed to bring the measured effect to its halfway point. A higher EC50 goes with weaker potency.

The target of experiment [1] is human CD137, cell-surface (human, UniProt Q07011 24-255). Nature of the experiment: cell-based or functional assay.
Experiment [2] has as its target T1, cynomolgus CD137, cell-surface (cynomolgus, UniProt Q07011 24-255 (human entry)).
T1 chain: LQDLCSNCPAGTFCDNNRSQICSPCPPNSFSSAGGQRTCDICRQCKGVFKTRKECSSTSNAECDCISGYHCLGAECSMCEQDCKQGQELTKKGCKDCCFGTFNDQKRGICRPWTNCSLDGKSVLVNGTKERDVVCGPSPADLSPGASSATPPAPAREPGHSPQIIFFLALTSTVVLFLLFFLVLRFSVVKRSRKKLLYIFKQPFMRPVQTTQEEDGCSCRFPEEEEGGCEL
In words: cell-based or functional assay.

Experiment [3] concerns the target T2, human PD-L1, cell-surface (human, UniProt Q9NZQ7 19-290).
T2 construct: also called HEK.hPD-L1; PD-L1 on MDA-MB-231, on Promega PD-L1 cells, on primary human cells
Nature of the experiment: flow cytometry on HEK.hPD-L1. Here is the method:
Non-specific binding was also assessed by testing binding to HEK293 parental cells lacking human PD-L1 (Flp-In T-Rex 293 cell line, Life Technologies, R780-07).
HEK293, HEK.hPD-L1 and HEK.cPD-L1 suspensions were prepared in FACS buffer (DPBS (Gibco, 14190-094) containing 0.5% BSA (Sigma, A7906)) and seeded at 1×10⁵ cell/well in 100 μl in round bottomed 96-well plates (VWR, 734-1797). […] The washed cells were resuspended in the diluted antibody mixture, incubated at 4° C. for 30 minutes, and then washed once in FACS buffer. […] Dead cells were excluded and the fluorescence in the APC channel (638 nm 660/20) was measured. The geometric mean fluorescence intensity (GMFI) values were plotted vs the log concentration of antibody and the resulting curves were fitted using the log (agonist) vs response equation in GraphPad Prism.

T2 sequence (Q9NZQ7 19-290): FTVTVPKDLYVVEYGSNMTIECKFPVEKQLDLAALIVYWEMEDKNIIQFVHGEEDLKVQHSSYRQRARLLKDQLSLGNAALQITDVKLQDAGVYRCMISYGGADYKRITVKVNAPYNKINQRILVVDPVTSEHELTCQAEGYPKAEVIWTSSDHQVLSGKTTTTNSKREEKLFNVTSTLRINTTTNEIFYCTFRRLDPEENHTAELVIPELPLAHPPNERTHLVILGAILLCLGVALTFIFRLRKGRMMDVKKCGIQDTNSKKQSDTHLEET

B1: FS22-172-003-AA/E12v2 (bispecific antibody, human IgG1, kappa, L234A L235A)
heavy: EVQLVQSGAEVKRPGASVKVSCKASGYPFTSYGISWVRQAPGQGLEWMGWISAYSGGTNYAQKLQGRVTMTTDTSTSTAYMELRSLRSDDTAVYYCARDLFPTIFGVSYYYYWGQGTLVTVSSASTKGPSVFPLAPSSKSTSGGTAALGCLVKDYFPEPVTVSWNSGALTSGVHTFPAVLQSSGLYSLSSVVTVPSSSLGTQTYICNVNHKPSNTKVDKKVEPKSCDKTHTCPPCPAPEAAGGPSVFLFPPKPKDTLMISRTPEVTCVVVDVSHEDPEVKFNWYVDGVEVHNAKTKPREEQYNSTYRVVSVLTVLHQDWLNGKEYKCKVSNKALPAPIEKTISKAKGQPREPQVYTLPPSRDELPYIIPPYNQVSLTCLVKGFYPSDIAVEWESNGQPENNYKTTPPVLDSDGSFFLYSKLTVGADRWLEGNVFSCSVMHEALHNHYTQKSLSLSPG
light: DIQMTQSPSTLSASVRDRVIITCRASQSIGNRLAWYQHKPGKAPKLLIYEASTSETGVPSRFSGSGSGTDFTLTISSLQPEDFATYYCQQSYSTPYTFGQGTKLEIKRTVAAPSVFIFPPSDEQLKSGTASVVCLLNNFYPREAKVQWKVDNALQSGNSQESVTEQDSKDSTYSLSSTLTLSKADYEKHKVYACEVTHQGLSSPVTKSFNRGEC
notes: PD-L1 site in the Fab, CD137 site in the CH3, LALA; also called anti-human CD137/PD-L1 mAb^2
Take B1: the “EC50, IFN-γ release, human PBMC assay” value in experiment [1] stood at 0.03 nM. In experiment [2], the “EC50, IFN-γ release, cynomolgus PBMC assay” value is 0.08 nM. Further, a half-maximal effect in experiment [3] (EC50) was put at 3.7 nM.

For the origin of these results see patent US20250346679A1 (INVOX PHARMA, published 2025).
